# Reference: the Human Domainome abundance scans (Beltran et al. 2025)
# ± gives the uncertainty stated by the source.
# B1: CD2-associated protein, residues 1 to 59; numbered along this chain, Q9Y5K6 (parent)
# chain: MVDYIVEYDYDAVHDDELTIRVGEIIRNVKKLQEEGWLEGELNGRRGMFPDNFVKEIKR
# Variants of: B1
# Experiment: abundance fitness (aPCA) (normalised: wild type 0, dead -1); higher = more abundant; growth selection in yeast, the domain comes from the species named
# Settings: Homo sapiens
row,Variant,abundance fitness
1,MVDYIVEYDYDAVHDDELTIRVGEIIRNVKKLFEEGWLEGELNGRRGMFPDNFVKEIKR [Q33F],-0.182 ± 0.06
2,MVDYIVEYDYDAVHDDELTIRVGEIIRNVKKLREEGWLEGELNGRRGMFPDNFVKEIKR [Q33R],-0.084 ± 0.083
3,MVDYIVEYDYDAVHDDELTIRVGEIIRNVKKLIEEGWLEGELNGRRGMFPDNFVKEIKR [Q33I],-0.36 ± 0.089
4,MVDYIVEYDYDAVHDDELTIRVGEIIRNVKKLCEEGWLEGELNGRRGMFPDNFVKEIKR [Q33C],-0.192 ± 0.099
5,MVDYIVEYDYDAVHDDELTIRVGEIIRNVKKLLEEGWLEGELNGRRGMFPDNFVKEIKR [Q33L],-0.351 ± 0.068
6,MVDYIVEYDYDAVHDDELTIRVGEIIRNVKKLMEEGWLEGELNGRRGMFPDNFVKEIKR [Q33M],-0.238 ± 0.23
7,MVDYIVEYDYDAVHDDELTIRVGEIIRNVKKLSEEGWLEGELNGRRGMFPDNFVKEIKR [Q33S],0.03 ± 0.069
8,MVDYIVEYDYDAVHDDELTIRVGEIIRNVKKLYEEGWLEGELNGRRGMFPDNFVKEIKR [Q33Y],-0.242 ± 0.081
9,MVDYIVEYDYDAVHDDELTIRVGEIIRNVKKLHEEGWLEGELNGRRGMFPDNFVKEIKR [Q33H],-0.119 ± 0.091
10,MVDYIVEYDYDAVHDDELTIRVGEIIRNVKKLWEEGWLEGELNGRRGMFPDNFVKEIKR [Q33W],-0.474 ± 0.28
11,MVDYIVEYDYDAVHDDELTIRVGEIIRNVKKLAEEGWLEGELNGRRGMFPDNFVKEIKR [Q33A],-0.071 ± 0.089
12,MVDYIVEYDYDAVHDDELTIRVGEIIRNVKKLEEEGWLEGELNGRRGMFPDNFVKEIKR [Q33E],-0.014 ± 0.18
13,MVDYIVEYDYDAVHDDELTIRVGEIIRNVKKLVEEGWLEGELNGRRGMFPDNFVKEIKR [Q33V],-0.317 ± 0.078
14,MVDYIVEYDYDAVHDDELTIRVGEIIRNVKKLGEEGWLEGELNGRRGMFPDNFVKEIKR [Q33G],0.015 ± 0.13
15,MVDYIVEYDYDAVHDDELTIRVGEIIRNVKKLTEEGWLEGELNGRRGMFPDNFVKEIKR [Q33T],0.006 ± 0.083
16,MVDYIVEYDYDAVHDDELTIRVGEIIRNVKKLDEEGWLEGELNGRRGMFPDNFVKEIKR [Q33D],0.065 ± 0.073
17,MVDYIVEYDYDAVHDDELTIRVGEIIRNVKKLNEEGWLEGELNGRRGMFPDNFVKEIKR [Q33N],0.102 ± 0.073
18,MVDYIVEYDYDAVHDDELTIRVGEIIRNVKKLKEEGWLEGELNGRRGMFPDNFVKEIKR [Q33K],-0.07 ± 0.12
19,MVDYIVEYDYDAVHDDELTIRVGEIIRNVKKLQEEDWLEGELNGRRGMFPDNFVKEIKR [G36D],-0.551 ± 0.1
20,MVDYIVEYDYDAVHDDELTIRVGEIIRNVKKLQEEEWLEGELNGRRGMFPDNFVKEIKR [G36E],-0.659 ± 0.38
21,MVDYIVEYDYDAVHDDELTIRVGEIIRNVKKLQEEFWLEGELNGRRGMFPDNFVKEIKR [G36F],-0.622 ± 0.15
22,MVDYIVEYDYDAVHDDELTIRVGEIIRNVKKLQEECWLEGELNGRRGMFPDNFVKEIKR [G36C],-0.403 ± 0.11
23,MVDYIVEYDYDAVHDDELTIRVGEIIRNVKKLQEEHWLEGELNGRRGMFPDNFVKEIKR [G36H],-0.231 ± 0.1

row,Variant,abundance fitness
1,MVDYIVEYDYDAVHDDELTIRVGEIIRNVKKLQEEIWLEGELNGRRGMFPDNFVKEIKR [G36I],-0.632 ± 0.13
2,MVDYIVEYDYDAVHDDELTIRVGEIIRNVKPLQEEGWLEGELNGRRGMFPDNFVKEIKR [K31P],0.089 ± 0.12
3,MVDYIVEYDYDAVHDDELTIRVGEIIRNVKTLQEEGWLEGELNGRRGMFPDNFVKEIKR [K31T],0.03 ± 0.12
4,MVDYIVEYDYDAVHDDELTIRVGEIIRNVKRLQEEGWLEGELNGRRGMFPDNFVKEIKR [K31R],-0.069 ± 0.092
5,MVDYIVEYDYDAVHDDELTIRVGEIIRNVKSLQEEGWLEGELNGRRGMFPDNFVKEIKR [K31S],-0.13 ± 0.099
6,MVDYIVEYDYDAVHDDELTIRVGEIIRNVKYLQEEGWLEGELNGRRGMFPDNFVKEIKR [K31Y],-0.159 ± 0.44
7,MVDYIVEYDYDAVHDDELTIRVGEIIRNVKILQEEGWLEGELNGRRGMFPDNFVKEIKR [K31I],0.191 ± 0.19
8,MVDYIVEYDYDAVHDDELTIRVGEIIRNVKNLQEEGWLEGELNGRRGMFPDNFVKEIKR [K31N],-0.311 ± 0.5
9,MVDYIVEYDYDAVHDDELTIRVGEIIRNVKFLQEEGWLEGELNGRRGMFPDNFVKEIKR [K31F],-0.728 ± 0.33
10,MVDYIVEYDYDAVHDDELTIRVGEIIRNVKVLQEEGWLEGELNGRRGMFPDNFVKEIKR [K31V],-0.092 ± 0.093
11,MVDYIVEYDYDAVHDDELTIRVGEIIRNVKGLQEEGWLEGELNGRRGMFPDNFVKEIKR [K31G],-0.096 ± 0.083
12,MVDYIVEYDYDAVHDDELTIRVGEIIRNVKWLQEEGWLEGELNGRRGMFPDNFVKEIKR [K31W],-0.328 ± 0.12
13,MVDYIVEYDYDAVHDDELTIRVGEIIRNVKHLQEEGWLEGELNGRRGMFPDNFVKEIKR [K31H],0.036 ± 0.17
14,MVDYIVEYDYDAVHDDELTIRVGEIIRNVKLLQEEGWLEGELNGRRGMFPDNFVKEIKR [K31L],-0.214 ± 0.09
15,MVDYIVEYDYDAVHDDELTIRVGEIIRNVKQLQEEGWLEGELNGRRGMFPDNFVKEIKR [K31Q],-0.07 ± 0.1
16,MVDYIVEYDYDAVHDDELTIRVGEIIRNVKKAQEEGWLEGELNGRRGMFPDNFVKEIKR [L32A],0.118 ± 0.092
17,MVDYIVEYDYDAVHDDELTIRVGEIIRNVKKMQEEGWLEGELNGRRGMFPDNFVKEIKR [L32M],-0.159 ± 0.24
18,MVDYIVEYDYDAVHDDELTIRVGEIIRNVKKHQEEGWLEGELNGRRGMFPDNFVKEIKR [L32H],-0.001 ± 0.12
19,MVDYIVEYDYDAVHDDELTIRVGEIIRNVKKSQEEGWLEGELNGRRGMFPDNFVKEIKR [L32S],-0.011 ± 0.078
20,MVDYIVEYDYDAVHDDELTIRVGEIIRNVKKEQEEGWLEGELNGRRGMFPDNFVKEIKR [L32E],-0.088 ± 0.27
21,MVDYIVEYDYDAVHDDELTIRVGEIIRNVKKNQEEGWLEGELNGRRGMFPDNFVKEIKR [L32N],-0.078 ± 0.16
22,MVDYIVEYDYDAVHDDELTIRVGEIIRNVKKVQEEGWLEGELNGRRGMFPDNFVKEIKR [L32V],0.074 ± 0.24
